Experimental data published in patent publication US20090233074A1 (ARTIFICIAL CELL TECHNOLOGIES, published 2009).

T1: LN3 (long negative designed polypeptide)
T1 construct: Synthetic 48-residue polyanion; also called negative 48-residue peptide
T1 peptide: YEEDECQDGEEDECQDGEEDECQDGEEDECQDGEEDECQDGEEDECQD

T2: SN1 (short negative designed polypeptide)
T2 construct: Synthetic 32-residue polyanion built from a 7-residue motif of human complement C3, with Gly linkers and an N-terminal Tyr
T2 peptide: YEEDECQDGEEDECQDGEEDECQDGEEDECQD

T3: de novo-designed cysteine-containing negative polypeptide (SEQ ID NO: 6)
T3 peptide: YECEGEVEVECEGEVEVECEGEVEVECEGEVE

B1: SP2 (short positive designed polypeptide) (peptide)
peptide: YRRRRSVQGRRRRSVQGRRRRSVQGRRRRSVQ
notes: Synthetic 32-residue polycation built from a 7-residue motif of human lactotransferrin, with Gly linkers and an N-terminal Tyr

Tests used:
[1] = target: T1, LN3 (long negative designed polypeptide); assay: QCM, electrostatic layer-by-layer adsorption of oppositely charged peptides, pH 7.4, 1 mM DTT (pairs named in paragraph 153)
Method: (§1) The polypeptide molecular weight was verified by electrospray mass spectrometry. Peptide purity was greater than 70%. The polypeptide buffer was 10 mM sodium phosphate or 10 mM Tris-HCl, 1 mM DTT, 0.1 mM sodium azide, pH 7.4. All chemicals other than polypeptides were purchased from Sigma-Aldrich (USA).
(§2) Resonators were rinsed for 1 min. in pure water between subsequent adsorption cycles (removing perhaps 10-15% of weakly adsorbed material) and dried in a stream of gaseous N₂. Then the mass of the deposited peptide was measured indirectly by QCM. The mass measurement includes some water, despite drying, and low mass ions like K⁺, Na⁺, and Cl⁻. Partial interpenetration of neighboring layers of peptide is probable (see Decher, G. (1997) Science 227:1232; Schmitt et al. (1993) Macromolecules 26:7058; and Korneev et al. (1995) Physica B 214:954); this could be important for the efficiency of disulfide “locking.”
(§3) After adsorption of the polypeptide and rinsing and drying the QCM resonator, the resonant frequency of the resonator was measured. This enabled calculation of the frequency shift on adsorption and change in adsorbed mass. A decrease in frequency indicates an increase in adsorbed mass. […] Each of these combinations involved one negative polypeptide and one positive polypeptide, as required by ELBL.

[2] = target: T2, SN1 (short negative designed …); assay: as above
Method: as §1, §2, §3

[3] = target: T3, de novo-designed cysteine-containing …; assay: QCM, layer-by-layer assembly, 10 mM Tris-HCl, 10 mM DTT, pH 7.4, 2 mg/mL peptide
Method: All assembly experiments using QCM were conducted in the same conditions, except that the samples to undergo oxidation were dried using air instead of nitrogen gas. The assembly conditions were 10 mM Tris-HCl, 10 mM DTT, pH 7.4. The nominal peptide concentration was 2 mg/mL. The number of layers formed was 14.

Row | Binder | binding result [1] | binding result [2] | binding result [3]
1 | B1 | binds | binds | –
2 | YRRRRSVQGRRRRSVQGRRRRSVQGRRRRSVQGRRRRSVQGRRRRSVQ (Synthetic 48-residue polycation) [LP4 (long positive designed polypeptide)] | binds | – | –
3 | YKCKGKVKVKCKGKVKVKCKGKVKVKCKGKVK [de novo-designed cysteine-containing positive polypeptide (SEQ ID NO: 5)] | – | – | binds
